The values that follow come from a protein production outcome set (Wang et al. 2014).

The series is described as follows: label from the status in PepcDB records.
As for “NTLRELRLFLRDVTKRLATDKRFNIFSKPVSDYLEVIKEPMDLSTVITKIDKHNYLTAKDFLKDIDLICSNALEYNPDKDPGDKIIRHRACTLKDTAHAIIAAELDPEFNKLCEEIKE”, the protein production entry is “not failed”.

Regarding “MFALVLAAGRSRRFDGDKRKALLPCGRTLLTACLETAGKVFTETGVVLREDDEVQTLGIPSKVTIIRCKHADLGMGHSLAAGIAAALNSSADAVAILLADMPWIEPQTLRDLARLADPQRIALPMHEGQRGHPVIIGRRFWPRLLALEGDQGAKALITNNPAFCDVMNCDDPGVLRDADTRSALAIACRQHLTAGRDLEHHHHHH”, the protein production result is reported as “failed”. The value for “MLTFFIGDLLPIIVIMLLGYFSGRRETFSEDQARAFNKLVLNYALPAALFVSITRANREMIFADTRLTLVSLVVIVGCFFFSWFGCYKFFKRTHAEAAVCALIAGSPTIGFLGFAVLDPIYGDSVSTGLVVAIISIIVNAITIPIGLYLLNPSSGADGKKNSNLSALISAAKEPVVWAPVLATILVLVGVKIPAAWDPTFNLIAKANSGVAVFAAGLTLAAHKFEFSAEIAYNTFLKLILMPLALLLVGMACHLNSEHLQMMVLAGALPPAFSGIIIASRFNVYTRTGTASLAVSVLGFVVTAPLWIYVSRLVS” was “failed”; that for “METEGSLSILHVDDDAELGALVELYLEREDSGLDCTVTTETNPETALSLIRSSETNFDCIVSDYDMPEMNGIDFLEAIRETHPELPVLLFSGEETGDVAAEIIQAGVTDYLKKSVGTDQYTSLIRRVEHAVDSDGSFETGNEVKLSGVGVIGTDERFERVGETYASYYGYESEELVGKHWSELHPSNEVQHIRTHVIPAVRSGGKWTGQSKGLRADETTFTESKMVTALEDGRMLIAVDEIDDSGLAE” was “failed”; that for “MERRLCAILAADMAGYSRLMERNETDVLNRQKLYRRELIDPAIAQAGGQIVKTTGDGMLARFDTAQAALRCALEIQQAMQQREEDTPRKERIQYRIGINIGDIVLEDGDIFGDAVNVAARLEAISEPGAICVSDIVHQITQDRVSEPFTDLGLQKVKNITRPIRVWQWVPDADRDQSHDPQPSHVQH” was “not failed”.

As for “MPDIDLHALSRTVLWATFALTFLFGAILQRTHFCTMGAVSDAVNIGDWSRLRMWALAIGVAMIGTGILGWAGWIDPAKTIYAAGRLQWLSALVGGLMFGFGMVLGSGCGSKTLVRIGGGNLKSVVVFVFLGLSAYMTLKGVFGVVRVATVDAVAIALPTTQDLPSVLGHALSADVRMLRLALALAIGGALAVWALAGRDFRTPDNLLGGIGVGLVIVAMWYVSGHLGYVAEDPDTLQEAFVATNSGRMEALSFVAPVSYTLEWLMFFSDTSKVLTVGIVSVLGVIAGSAAVALASGTFRWEGFANAEDTGNHIVGGILMGAGGVTALGCTIGQGLSGVSTLAIGSFVALAGILAGAVLAFRYQMWRLERGG”, the protein production entry is “failed”.

Consider “MQNIVIRQCGHEDESWMNTLYKQNSKQALYQLGKSLDEGFVQDNAHFDQVMKQWIEIGAVYAAEIEGDPVGFLVIQRERAQHGPEIIQYISSHENILILQERALSDLHYAGYGPVLVSPHARGKGVAKALHDHALHILKAEKFDAMVAFVDAENPTSLKIHVDALDMQIIDKVVLASGQFFIIGQVIG”, for which the protein production entry was “failed”. With “EELIEIREARMDDLDTIAKFNYNLAKETEGKELDMDVLTKGVKALLLDERKGKYHVYTVFDKVVAQIMYTYEWSDWRNGNFLWIQSVYVDKEYRRKGIFNYLFNYIKNICDKDENIVGMRLYVEKENINAKATYESLNMYECDYNMYEYEVIHS”, the protein production entry is “not failed”.

Turning to “DFPKINHGILYDEEKYKPFSQVPTGEVFYYSCEYNFVSPSKSFWTRITCAEEGWSPTPKCLRLCFFPFVENGHSESSGQTHLEGDTVQIICNTGYRLQNNENNISCVERGWSTPPKCRSTISAEKCGPPPPIDNGDITSFLLSVYAPGSSVEYQCQNLYQLEGNNQITCRNGQWSEPPKCLDPCVISQEIMEKYNIKLKWTNQQKLYSRTGDIVEFVCKSGYHPTKSHSFRAMCQNGKLVYPSCEEK”, the protein production result was “not failed”. As for “MWTRLLPFLAWLPGLHRGMLGREAWVGLNGAILALPQSMAYALIAGLPAEYGLYAAMLPVAIACLWGSSRYLVSGPTAAISVLLFSSVAPLAPLGSPQYVQAVLLLTFLAGAFQWLLGVLRVGSLVNFVSHSVMLGFTLGAALLIVLGQLPYLLGLAASGEGAAPGNGWRLLARFAEFDGPSLLVGGFSFALSLLVRRLRPRWPALLLGLLGGATLVWALPGTFASVAHVQALSSALPGWSPLVFDSRSILDLLPAAVACGMLGLVTSLSIARALAARQGDAFDANQEVRAQGLSNLLGPWLSASLSAGSFTRSGLNLEAGARSPLAGAFSALWVALLAVLGARLIEHVPLPAMAAGILLIAWGLIDRPALRALYRSGRAECLVAGLTALATLLLPLQNAIYAGVLASLVFYLRRTSTPRVLRQRNDEEEVLRIEGSIFFGACDYLQRLMRQCDRPRLVLDARQVNFIDFAGAVLLQQEARRLHAEGRRLVLRHARPQVREALGRQADEGCRLHYEG”, the entry is “failed”; as for “MTSPSHASDRGGGDGDSVENQSPELRKDPVTNRWVIFSPARAKRPTDFKSKSPQNPNPKPSSCPFCIGREQECAPELFRVPDHDPNWKLRVIENLYPALSRNLETQSTQPETGTSRTIVGFGFHDVVIESPVHSIQLSDIDPVGIGDILIAYKKRINQIAQHDSINYIQVFKNQGASAGASMSHSHSQMMALPVVPPTVSSRLDGTKDYFEETGKCCLCEAKSKHFVIDESSHFVSVAPFAATYPFEIWIIPKDHSSHFHHLDDVKAVDLGGLLKLMLQKIAKQLNDPPYNYMIHTSPLKVTESQLPYTHWFLQIVPQLSGVGGFEIGTGCYINPVFPEDVAKVMREVSLT”, “not failed”.

“MKIGIIGAGNIGGTLARKFVAAGHSVKLAGSKSPDSIRELAENIGAEPVAAVEAVKDVEVIVLSIPFAKIPEVAGLFSTVPAEVVVIDTSNYYPQLGTRIPEVDDGELESVWAREQLGRPIIKAFNAIIAKTLADGGKPAGTDNRIAIPVAGDSLAGKAIAQQLLDDAGFDALDAGTIADSWRQQPGMPAYCTELPLAALHSALNVAVKGDAPHLRDALMAEFFGGDIPPSHETIVARNRAVSA”: the protein production entry is listed as “failed”. As for “TRMAPVIMVPGSSASQNRFDSLITELGKETPKKHSVLKLTVQTDGTIKYSGSIAANDNEPFIVIGFANNRDGKANIDKQAVWLNTAFKALVKTYHFNHFYALGHSNGGLIWTLFLERYLKESPKVHIDRLMTIASPYNMESTSTTAKTSMFKELYRYRTGLPESLTVYSIAGTENYTSDGTVPYNSVNYGKYIFQDQVKHFTEITVTGANTAHSDLPQNKQIVSLIRQYLLAETMPDK”, the entry is “not failed”.

Consider “RVGINQLVQHPALDAATTGFKEAFEEAGVDVTFDEQNANGEQGTALTISQQFASDNLDLVLAVATPAAQATAQNITDIPVLFTAVTDAVSAELVDSNEAPGGNVTGTSDIAPIEQQLELLQQLVPDAKSIGIVYASGEVNSQVQVDEVTKAAEPLGLSVNTQTVTTVNEIQQAVEALGDVDVIYVPTDNMVVSGISSLVQVAEQKQIPVIGAESGTVEGGALATLGIDYTELGRQTGEMALRILQDGEDPATMPVETATEFTYVINEDAAERQGVEIPQEILDKAERV”, for which the protein production result is given as “not failed”.

With “MTSAAEITAAVRQLYNTYPFPPEPLLDEPPPGYNWRWSWPAAYSFCTGRYPSQLDVAILDAGCGTGVGTEYLAHLNPQAKITALDLSEAALAIACERCRRSGATNVQFHHLSLEEVAQLGQTFQMINCVGVLHHLPEPQRGIQALADVLAPGGIVHIFVYGEYGRWEIKLMQQAIALLQGSDRHNYREGVAIGRQLFAALPENNRLKKREQERWSLENQRDECFADMYVHPQEIDYTIASLFELIRASGLEFIGFSNPQVWQLERLLGSQPELLQRAQQLDPIQQYQLIECLDPEAMTHFEFFLAKPPLPRHDWAADRELLAAIPWRHPCIDGWPGACVFNCHYEVIHLNQAEQEFLNAASGKATVAELLAQQPDFNLAEVRSLLARHLLLLGVKELEHHHHHH”, the protein production entry is recorded as “failed”. As for “MFDWLTNSTAIIIILPVVVFVLTLFLARFKFRKPQRRIMLAADLSTIFLIIAVHFFMIVIFNRSFLLYILLFLFILGIVIVVLAAKKEGEIQFRKILRGYWRLCFFIFALLYVVLYLYGIIYSLILLF”, the entry is “failed”; as for “IKHKQLIEQVMIYIEKHLAENITLQDIADELYISRNYLGQIFKKVVGESFKNYVTRLRMEKAKKMIQEGNFLIYEVSEKVGYVNPAYFTTMFKKYTGYTPRDLIQK”, “failed”. As for “MPVKTFVFDQIQKLMGWCPACRKMTLQTEQPCNFINTAQISGKTGNIPEFRTSNIIFPANTTLVFVLFYICISLLLRYPEDISLFLAGLFLLNIFYYFLYLKTLEAAVLVDRFGVHMHAFRLKKFEIPFEEIESMKLCRLEKRSKKMSLLLVIGGIALCGFFVYIAVAEGEWKPLLLLVSIIPLLLLVEMKQKMRFWNLNTQLYIKTRHKKLYEWTPYYSLITDEASAEELKSFIERHL”, the entry is “failed”; as for “MADLRKAARGRECQVRIPGVCNGNPETSVLAHIRLTGLCGTGTKPPDLIATIACSACHDEIDRRTHFVDAGYAKECALEGMARTQVIWLKEGVIKA”, “not failed”; as for “MNIDLTPYYAEPGEQPFSARRMAMPWRNHVPLSPEQIPAGWQTLKQQSVPARKRLLYLHIPFCATHCTFCGFYQNKLRDDSTATYTRYLLQELAMEADSPLHQSAPIHAVYFGGGTPTALAADELSQIIRAIRTSLPLAPDCEITVEGRAMDFDDERIDACLDAGANRFSIGIQTFDTRIRQRMARTSDKQQSIRFLERLCGRDRAAVVCDLMFGLPGQTPEIWREDLAIVSDLPLDGVDLYALNLLPTTPLAKAAENQRVALPDVVARRDFYRTGAAFLADSGWHQLSNSHWARTTRERNLYNLLIKQGADCLAMGSGAGGNINGQAYMMERSLERYYQQIDQGQKPIMMMTPASSTGPWQHQLQAGIEVGRIKLPQLTQHARELQPLLSQWHQAGLTCDDSTCLRLTNDGRFWANNLMQALQQIIPQLNAEEHAHLEHHHHHH”, “not failed”.

On to “GKVYTINSGPIYANPIIHHQVNEKIGYLVYSAFESGFDQELFDVFKEFKSQNITELILDLRYNGGGDVTSANLISSCIAGDLCIDKTFASYRYNDERMKVLGNQRPIQKFAYSQYDNLSTSLSAGGLNLRKIYCLVTDDSASASELVINALRGIDIEVILIGTTTHGKNVGMEGVELTAGTDKYLLFPITFQAYNAKGFGDFENGFTPDYEINENKPNGEYFEGYGDFGAESDPLYAKAISLISGNEVTT”, for which the protein production result is given as “failed”. The value for “MVSSLSVYYRKLAYHVIESDGFLWVGFKPGMVHFIAKEVWNIRPLTRTDVERYYEEFTVLTQGKGSLYFRIVAHGGFLKEALAYELHGLTVSDDNYLRSLNSGRHVELYPHNEKAYRAIIKGFEQHRIGTVVQATGTGKSYLLARYISDHATERICVFAPNVTILEEIKKAVGFTSPYICYRTFQSLIYYRKNDKQLKADHILIDEFHHFGAEIWGAALQEVIESNPQAYILGTSATPIRPEGMIDTVDLYFEGNLFYELTLPQAWYYRILPVPILVQSAYGLDGELNRLQKRLDRSGCSIRRKEQVQKKLDVARVDFKGALGAPEVIRKFLPKDVCKLLVFCRDLTDLKQMVPEVCGWLTQAGRVIIPFEIHHTQSERINNQILKAFQKESGKLHVLFSVNMLIEGLHVEGIDAVLFLRRTESYIVTLQQLGRCLDAGSGKQPVVLDFVNNLSGKSVYDMMALHMERLACQPSPKGFEGVTSFLTTGFLSDIRLRIEEILTELEPWQIMYERLIEFRKKENDWPSVTEGKLGLWCNTQRMAYKRGRLSEERYKLLESVGFEWNLLDSNWMKEFQSLKVFFATQGRWPKREDGALATWCYTQRERRKKGRLSKERIRVLDEIGFVWSQDLNGEWMKNYEALKIFLDKQQRFPKSAEGYLGEWCSTQRKMRKQGKLSPDRQTLLDRIGFVWSVEQVWRSHLEQLHQFHVQNGRWPGCREGALGRWCTVQRRNYRRGSLSDQKIVQLEQIGFIPLKGDE” was “failed”.
